Data from patent US20180265572A1 (Bristol-Myers Squibb, published 2018).
Changes are numbered by the printed parent chain. In names and notes the source's numbering stands. Several values for one entry are separate records, joined by “and”; a condition that tells them apart may be missing. Equal entries are not always repeated. One block for each binder: values may come before it.

Key:
human IGF-IR-Fc fusion [1] = molecular target: T1, human IGF-IR-Fc fusion (human, UniProt P08069 31-932); test: SPR (Biacore), IGF1R-Fc captured on Protein A
T1 construct: range 1-932; If it counts on the precursor, it includes the signal peptide; also called IGF1R-Fc; not shown: hinge and constant regions of human IgG
Method: (§1) Affinity data was also measured from midscale and large scale material, for the pegylated version of the tandem construct 385A08-Fn-V2B-cys (SEQ ID NO: 9, with and without his tag). The specific materials and methods for these calculations are described below.
(§2) An alternative method is to capture the IGF—IR-Fc on Protein A. This method was used for calculating the affinity and kinetics of certain versions of the construct 385A08-Fn-V2B-cys (both pegylated and non-pegylated and with or without his tag) from midscale and large scale materials. Specifically, IGF—IR-Fc was captured on Protein A immobilized on a Biacore CM5 sensor chip by amine coupling. VEGFR2-Fc was immobilized directly on a CM5 chip by amine coupling. The affinity and kinetic analysis involved the capture of IGF—IR-Fc on Protein A followed by injection of the tandem adnectin in solution over IGF—IR-Fc and VEGFR2-Fc. The analytical surface was regenerated between samples with glycine pH 1.5. Sensorgrams were obtained at each concentration and were evaluated using Biacore T100 evaluation software to determine the rate constants kₐ (kₒₙ) and kd (koff).

VEGFR2-Fc (R&D Systems) [2] = molecular target: T2, VEGFR2-Fc (R&D Systems) (UniProt P35968 20-764); test: SPR (Biacore), VEGFR2-Fc immobilized directly on the chip
T2 construct: Bought reagent; not shown: Fc part of the bought fusion; not described
Method: as §1, §2
The functionality of the V2B domain was assessed by evaluating a concentration series of the midscale and large scale purification of the tandem construct 385A08-Fn-V2B (pegylated, and non-pegylated versions, his-tag and non-his-tag versions) vs. VEGFR2-Fc that was directly immobilized on a CM5 chip surface (GE, Piscataway, N.J.). VEGFR2-Fc (R&D Systems, MN) was diluted to 12 ug/mL in 50 mM Acetate pH 5.0 for an immobilization level of ˜1300 RU. Varying concentrations of 385A08-Fn-V2B in the solution phase were monitored for association (2 minutes) and dissociation (10 minutes) kinetics at a flow rate of 50 uL/min. Two 30 second injections of 50 mM glycine pH 1.7 were used to regenerate the surface.

[3] = molecular target: VEGFR-2 in nude mice (in vivo) (UniProt P35918 20-1345, limits assumed); test: cell-based or functional assay
[4] = molecular target: VEGFR-2 in cynomolgus monkeys (in vivo); test: cell-based or functional assay
human IGF-IR on cells = human IGF-IR on cells (human, UniProt P08069 31-1367); test: cell-based or functional assay
[5] = molecular target: VEGFR2 fusion protein on Ba/F3 cells (extracellular domain of hVEGFR2 and intracellular domain of hEpoR) (human, UniProt P35968 20-764; P19235 274-508, limits assumed); test: cell-based or functional assay
human IGF-IR-Fc fusion [6] = molecular target: T1, human IGF-IR-Fc fusion; test: SPR (Biacore), IGF-IR-Fc captured on Protein A/G, HTPP purified binder in solution, n=1, KD approximate
human IGF-IR-Fc fusion [7] = molecular target: T1, human IGF-IR-Fc fusion; test: SPR (Biacore), captured IGF-IR-Fc, midscale material
VEGFR2-Fc (R&D Systems) [8] = molecular target: T2, VEGFR2-Fc (R&D Systems); test: SPR (Biacore), immobilized VEGFR2-Fc, midscale purified binder
VEGFR2-Fc (R&D Systems) [9] = molecular target: T2, VEGFR2-Fc (R&D Systems); test: SPR (Biacore), immobilised VEGFR2-Fc, midscale material
human IGF-IR-Fc fusion [10] = molecular target: T1, human IGF-IR-Fc fusion; test: SPR (Biacore), captured IGF1R-Fc, midscale purified binder
[11] = molecular target: T3, VEGFR-2 (KDR) on transfected cells (UniProt P35968 20-1356, limits assumed); test: competitive blocking assay on 293:KDR cells; competitor 200 nM IRDye 800CW-labelled Peg-V2Bshort
T3 construct: whole, on cells; also called Flk-1
Method: Similarly, the pegylated, his-tagged construct 385A08-Fn-V2B-cys was able to block the interaction of a mono-specific ¹⁰Fn3-based VEGFR-2 binder (Peg-V2Bshort, SEQ ID NO: 28) with VEGFR-2 present on 293:KDR cells. […] In particular, in a Ba/F3 assay (described below), the IC₅₀ for the monomeric, non-pegylated VEGFR2 binder V2Bshort (SEQ ID NO: 28) is approximately 0.1-3 nM whereas the IC₅₀ for the monomeric, non-pegylated VEGFR2 binder having SEQ ID NO: 44 (e.g., with an N-terminal extension) is approximately 8-13 nM. […] Both the R⁺ and 293:KDR cell based competitive blocking assays are described in detail in the materials and methods section below.
293:KDR (Sibtech, Brookfield, Conn.) were plated in 96 well plates at a concentration of 25,000 cells per well in DMEM (Invitrogen, Carlsbad, Calif.) containing 10% fetal bovine serum (Hyclone, Logan, Utah). The following day, cells were washed twice in serum free DMEM containing 0.1% BSA (Invitrogen, Carlsbad, Calif.). After the washes, the cells were incubated at 4° C. for 10 minutes in binding buffer (serum free DMEM+0.1% BSA) containing increasing concentrations of VEGFR-2 antagonists or controls. Typical controls included the mono-specific ¹⁰Fn3-based VEGFR2 binder (Peg-V2Bshort, SEQ ID NO: 28) (positive control) or the mono-specific ¹⁰Fn3-based IGF-IR binder (AT580-PEG40, SEQ ID NO: 27) (negative control). […]

B1: pegylated, non-his-tag version of 385A08-Fn-V2B-cys (designed binder)
chain: MGVSDVPRDLEVVAATPTSLLISWSARLKVARYYRITYGETGGNSPVQEFTVPKNVYTATISGLKPGVDYTITVYAVTRFRDYQPISINYRTEIDKPSTSTSTVSDVPRDLEVVAATPTSLLISWRHPHFPTRYYRITYGETGGNSPVQEFTVPLQPPTATISGLKPGVDYTITVYAVTDGRNGRLLSIPISINYRTEIDKPCQ
modifications: PEG on the single cysteine at position 203
notes: also called 385A08-Fn-V2B-cys (pegylated, no his-tag); 385A08-Fn-V2B-Cys (non-his tagged)
- Kd (human IGF-IR-Fc fusion [1]): 0.982 nM and 1.04 nM
- koff (human IGF-IR-Fc fusion [1]): 0.00027 s⁻¹ and 0.000253 s⁻¹
- kon (human IGF-IR-Fc fusion [1]): 275000 M⁻¹ s⁻¹ and 244000 M⁻¹ s⁻¹
- Kd (VEGFR2-Fc (R&D Systems) [2]): 17.2 nM and 5.8 nM
- koff (VEGFR2-Fc (R&D Systems) [2]): 0.000115 s⁻¹ and 7.49e-05 s⁻¹
- kon (VEGFR2-Fc (R&D Systems) [2]): 6670 M⁻¹ s⁻¹ and 13000 M⁻¹ s⁻¹
- plasma IC50, indirect-response PD model, nude mice bearing the A673 tumor [3]: 7000 nM
- plasma IC50 (grand mean), PK/PD model, monkeys [4]: 159 nM

B2: V2B-Fn-385A08-Cys (designed binder)
single chain: MGVSDVPRDLEVVAATPTSLLISWRHPHFPTRYYRITYGETGGNSPVQEFTVPLQPPTATISGLKPGVDYTITVYAVTDGRNGRLLSIPISINYRTEIDKPSTSTSTVSDVPRDLEVVAATPTSLLISWSARLKVARYYRITYGETGGNSPVQEFTVPKNVYTATISGLKPGVDYTITVYAVTRFRDYQPISINYRTEIDKPCQHHHHHH
- IC50, inhibition of proliferation of Rh41 cells (n=1) (human IGF-IR on cells): 6 nM
- IC50, inhibition of VEGF-A dependent proliferation of Ba/F3 cells [5]: 0.8 nM

B3: V2B-Fn-385A08 (designed binder)
single chain: B2 single chain with C203S
notes: also called V2B-Fn-385A08 (Ser tail)
- IC50, inhibition of VEGF-A dependent proliferation of Ba/F3 cells [5]: 2.2 nM
- Kd (human IGF-IR-Fc fusion [6]): ~0.2 nM

B7: 385A08-GS10 (SEQ ID NO: 22)-V2B, his-tagged (designed binder)
chain: MGVSDVPRDLEVVAATPTSLLISWSARLKVARYYRITYGETGGNSPVQEFTVPKNVYTATISGLKPGVDYTITVYAVTRFRDYQPISINYRTEIDKGSGSGSGSGSGSGSGSGSGSVSDVPRDLEVVAATPTSLLISWRHPHFPTRYYRITYGETGGNSPVQEFTVPLQPPTATISGLKPGVDYTITVYAVTDGRNGRLLSIPISINYRTEIDKPSQHHHHHH
notes: also called 385A08-GS10-V2B; 385A08-GS10-V2B (Ser tail)
- Kd (human IGF-IR-Fc fusion [7]): 0.04 nM
- koff (VEGFR2-Fc (R&D Systems) [8]): 0.000193 s⁻¹
- kon (VEGFR2-Fc (R&D Systems) [8]): 414000 M⁻¹ s⁻¹
- IC50, inhibition of proliferation of Rh41 cells (n=1) (human IGF-IR on cells): 27 nM
- IC50, inhibition of VEGF-A dependent proliferation of Ba/F3 cells [5]: 1.2 nM
- Kd (VEGFR2-Fc (R&D Systems) [9]): 0.5 nM
- Kd (human IGF-IR-Fc fusion [6]): ~0.3 nM
- koff (human IGF-IR-Fc fusion [10]): 0.000308 s⁻¹
- kon (human IGF-IR-Fc fusion [10]): 7.72e+06 M⁻¹ s⁻¹

B8: 385A08-GS5-V2B (designed binder)
single chain: MGVSDVPRDLEVVAATPTSLLISWSARLKVARYYRITYGETGGNSPVQEFTVPKNVYTATISGLKPGVDYTITVYAVTRFRDYQPISINYRTEIDKGSGSGSGSGSVSDVPRDLEVVAATPTSLLISWRHPHFPTRYYRITYGETGGNSPVQEFTVPLQPPTATISGLKPGVDYTITVYAVTDGRNGRLLSIPISINYRTEIDKPSQHHHHHH
notes: also called 385A08-GS5-V2B (Ser tail)
- IC50, inhibition of proliferation of Rh41 cells (n=1) (human IGF-IR on cells): 40 nM
- IC50, inhibition of VEGF-A dependent proliferation of Ba/F3 cells [5]: 1 nM
- Kd (human IGF-IR-Fc fusion [6]): ~0.3 nM

B10: Peg-V2Bshort (designed binder)
chain: GEVVAATPTSLLISWRHPHFPTRYYRITYGETGGNSPVQEFTVPLQPPTATISGLKPGVDYTITVYAVTDGRNGRLLSIPISINYRTEIDKPCQ
modifications: pegylated at position 93 (single cysteine); the tracer form is labelled with IRDye 800CW
- IC50, inhibition of proliferation of Rh41 cells (n=1) (human IGF-IR on cells): > 50 nM
- IC50, inhibition of VEGF-A dependent proliferation of Ba/F3 cells [5]: 10 nM
- IC50 [11]: ~20 nM

Now from value to binder:

- Kd (human IGF-IR-Fc fusion [7]): 0.05 nM
- koff (VEGFR2-Fc (R&D Systems) [8]): 0.000222 s⁻¹
- kon (VEGFR2-Fc (R&D Systems) [8]): 382000 M⁻¹ s⁻¹
- IC50, inhibition of VEGF-A dependent proliferation of Ba/F3 cells [5]: 1.9 nM
- Kd (VEGFR2-Fc (R&D Systems) [9]): 0.6 nM
- Kd (human IGF-IR-Fc fusion [6]): ~0.2 nM
- koff (human IGF-IR-Fc fusion [10]): 0.000204 s⁻¹
- kon (human IGF-IR-Fc fusion [10]): 4.18e+06 M⁻¹ s⁻¹
B4: V2B-GS10 (SEQ ID NO: 22)-385A08, his-tagged (designed binder)
chain: MGVSDVPRDLEVVAATPTSLLISWRHPHFPTRYYRITYGETGGNSPVQEFTVPLQPPTATISGLKPGVDYTITVYAVTDGRNGRLLSIPISINYRTEIDKGSGSGSGSGSGSGSGSGSGSVSDVPRDLEVVAATPTSLLISWSARLKVARYYRITYGETGGNSPVQEFTVPKNVYTATISGLKPGVDYTITVYAVTRFRDYQPISINYRTEIDKPSQHHHHHH
notes: also called V2B-GS10-385A08; V2B-GS10-385A08 (Ser tail)

- IC50, inhibition of proliferation of Rh41 cells (n=1) (human IGF-IR on cells): 33 nM
- IC50, inhibition of VEGF-A dependent proliferation of Ba/F3 cells [5]: 1.3 nM
B5: 385A08-Fn-V2B-Cys (designed binder)
single chain: MGVSDVPRDLEVVAATPTSLLISWSARLKVARYYRITYGETGGNSPVQEFTVPKNVYTATISGLKPGVDYTITVYAVTRFRDYQPISINYRTEIDKPSTSTSTVSDVPRDLEVVAATPTSLLISWRHPHFPTRYYRITYGETGGNSPVQEFTVPLQPPTATISGLKPGVDYTITVYAVTDGRNGRLLSIPISINYRTEIDKPCQHHHHHH

- IC50, inhibition of proliferation of Rh41 cells (n=1) (human IGF-IR on cells): 0.07 nM
B6: AT580-PEG20-AT580 (designed binder)
chain: MGVSDVPRDLEVVAATPTSLLISWSARLKVARYYRITYGETGGNSPVQEFTVPKNVYTATISGLKPGVDYTITVYAVTRFRDYQPISINYRTEIDKPCQ
modifications: the two chains are joined by a 20 kDa PEG at position 98 (cysteine) of each; labelled with IRDye 800CW in the competition assay

- IC50, inhibition of VEGF-A dependent proliferation of Ba/F3 cells [5]: 2 nM
- Kd (human IGF-IR-Fc fusion [6]): ~0.2 nM
B9: V2B-GS5-385A08 (designed binder)
single chain: MGVSDVPRDLEVVAATPTSLLISWRHPHFPTRYYRITYGETGGNSPVQEFTVPLQPPTATISGLKPGVDYTITVYAVTDGRNGRLLSIPISINYRTEIDKGSGSGSGSGSVSDVPRDLEVVAATPTSLLISWSARLKVARYYRITYGETGGNSPVQEFTVPKNVYTATISGLKPGVDYTITVYAVTRFRDYQPISINYRTEIDKPSQHHHHHH
notes: also called V2B-GS5-385A08 (Ser tail)
